# From patent US6458943 (INSTITUT NATIONAL DE LA SANTE ET DE LA RECHERCHE MEDICALE, dated 2002)
# T1: histidyl t-RNA synthetase library interactor (pAD-GAL4 construct, EBML accession no. Z 11518) (human, UniProt P04386 761-881; P12081 2-509, limits assumed)
# T1 construct: False positive of the Hf7c screen
# T1 sequence (looked up): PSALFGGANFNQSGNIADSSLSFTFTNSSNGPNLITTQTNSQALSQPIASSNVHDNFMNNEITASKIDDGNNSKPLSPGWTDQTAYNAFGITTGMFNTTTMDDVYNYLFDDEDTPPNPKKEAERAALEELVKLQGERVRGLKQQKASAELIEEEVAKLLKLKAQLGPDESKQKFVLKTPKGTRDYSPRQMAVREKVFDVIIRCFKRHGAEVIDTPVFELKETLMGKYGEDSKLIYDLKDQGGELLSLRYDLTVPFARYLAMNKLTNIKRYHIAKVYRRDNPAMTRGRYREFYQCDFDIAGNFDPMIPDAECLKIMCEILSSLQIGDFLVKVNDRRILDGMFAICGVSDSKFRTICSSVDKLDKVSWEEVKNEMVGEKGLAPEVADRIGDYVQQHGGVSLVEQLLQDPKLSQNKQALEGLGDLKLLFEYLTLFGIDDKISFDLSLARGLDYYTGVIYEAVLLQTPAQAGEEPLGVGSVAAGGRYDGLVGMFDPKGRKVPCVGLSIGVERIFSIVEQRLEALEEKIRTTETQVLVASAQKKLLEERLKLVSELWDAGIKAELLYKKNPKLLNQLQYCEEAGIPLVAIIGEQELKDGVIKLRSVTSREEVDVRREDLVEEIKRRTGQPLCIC
# T2: hD53 interactor (GAL4 activation domain fusion, pACT2hD53) (human, UniProt P04386 768-881 (Saccharomyces cerevisiae entry))
# T2 construct: range 768-881
# T2 sequence: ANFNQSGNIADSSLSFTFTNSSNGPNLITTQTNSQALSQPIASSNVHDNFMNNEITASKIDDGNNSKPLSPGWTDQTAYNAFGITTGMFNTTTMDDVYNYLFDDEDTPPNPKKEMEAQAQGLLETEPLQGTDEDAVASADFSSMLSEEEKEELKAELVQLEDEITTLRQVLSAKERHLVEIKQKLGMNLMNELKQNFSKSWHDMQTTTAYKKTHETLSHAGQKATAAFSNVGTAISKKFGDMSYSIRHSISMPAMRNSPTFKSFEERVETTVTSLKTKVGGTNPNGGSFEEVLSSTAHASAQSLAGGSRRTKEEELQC
# B1: hD52 bait (GAL4 DNA-binding domain fusion, pAS2-1hD52) (other)
# chain: MKLLSSIEQACDICRLKKLKCSKEKPKCAKCLKNNWECRYSPKTKRSPLTRAHLTEVESRLERLEQLFLLIFPREDLDMILKMDSLQDIKALLTGLFVQDNVNKDAVTDRLASVETDMPLTLRQHRISATSSSEESSNKGQRQLTVSMDRGEQGLLRTDPVPEEGEDVAATISATETLSEEEQEELRRELAKVEEEIQTLSQVLAAKEKHLAEIKRKLGINSLQELKQNIAKGWQDVTATSAYKKTSETLSQAGQKASAAFSSVGSVITKKLEDVKNSPTFKSFEEKVENLKSKVGGTKPAGGDFGEVLNSAANASATTTEPLPEKTQESL
# notes: Fusion expressed in yeast; also called full-length hD52 bait
# Tests used:
# [1] = biological target: B1; assay: yeast two-hybrid screening of a human breast carcinoma cDNA library in Hf7c (His+)
# Description: (§1) Transformants were plated onto solid SD/-His-Trp-Leu (incorporating 35 mM 3-AT in the case of Y190 transformants) and incubated for up to 14 days at 30° C. After 3 initial days of growth, plates were inspected daily, and His+ colonies were transferred to SD/-His-Trp-Leu +0.07 M potassium phosphate pH 7+40 µg/ml X-gal plates which incorporated 35 mM 3-AT in the case of Y190 co-transformants. Colonies which remained His+, and in the case of Y190 co-transformants, were also lacZ+, were re-streaked onto fresh plates to check that all colonies were of uniform phenotype. After 6 days incubation at 30° C., yeast colonies were directly harvested, and plasmid DNA was isolated and used to transfect XL1 Blue. Mini-preparations of plasmid DNA were performed for at least 5 XL1 Blue colonies per transfection, with the results of restriction digests differentiating potential interactors from bait plasmids. […] Phenotypes of resulting co-transfectants were assayed quantitatively and/or qualitatively as described above.
# [2] = biological target: T3, eukaryotic initiation factor 4AII library interactor (pAD-GAL4 construct, DNA Database of Japan accession no. … (human, UniProt P04386 761-881; Q14240 1-407, limits assumed); assay: yeast two-hybrid, retransfection of Hf7c
# T3 construct: False positive of the Hf7c screen
# Description: as §1
# [3] = biological target: T1, histidyl t-RNA synthetase library …; assay: yeast two-hybrid, retransfection of Hf7c
# Description: as §1
# [4] = biological target: T4, hD53 bait (GAL4 DNA-binding domain fusion, pAS2-1hD53) (human, UniProt P04386 1-147 (Saccharomyces cerevisiae entry)); assay: yeast two-hybrid screening of a human breast carcinoma cDNA library in Y190 (His+ lacZ+)
# T4 construct: Fusion expressed in yeast; also called full-length hD53 bait
# [5] = biological target: T2, hD53 interactor (GAL4 activation domain …); assay: yeast two-hybrid in Y190, β-galactosidase assay
# Description: Interactions between baits and interactors were assessed by qualitatively and/or quantitatively determining HIS3 and lacZ reporter gene activity in Y190 co-transfectants. Reporter gene activities were assessed qualitatively by observing the growth and color development of Y190 co-transfectants on solid SD media lacking His, Trp and Leu (SD/-His-Trp-Leu), and incorporating 0.07 M potassium phosphate pH 7, 35 mM 3-AT, and 40 µg/ml X-gal. For quantitative assessment of interactions, β-galactosidase activity was measured using the substrate o-nitrophenyl β-D-galactopyranoside (ONPG) in liquid cultures (SD/-His-Trp-Leu +35 mM 3-AT) of Y190 co-transfectants.
binder,measurement,setting,value
"hD52 library interactor, pAD-GAL4 clone beginning at nt 60 of the hD52 cDNA (<Met1) (other, range 761-881; also called nt 60 (<Met^1)) PSALFGGANFNQSGNIADSSLSFTFTNSSNGPNLITTQTNSQALSQPIASSNVHDNFMNNEITASKIDDGNNSKPLSPGWTDQTAYNAFGITTGMFNTTTMDDVYNYLFDDEDTPPNPKKEMDRGEQGLLRTDPVPEEGEDVAATISATETLSEEEQEELRRELAKVEEEIQTLSQVLAAKEKHLAEIKRKLGINSLQELKQNIAKGWQDVTATSAYKKTSETLSQAGQKASAAFSSVGSVITKKLEDVKNSPTFKSFEEKVENLKSKVGGTKPAGGDFGEVLNSAANASATTTEPLPEKTQESL",binding result,[1],binds
B1,binding result,[2],no binding
same,binding result,[3],no binding
"hD53 library interactor, pAD-GAL4 clone beginning at nt 204 of the hD53 cDNA (Leu9) (other, range 761-881; The clone lacks hD53 residues 1-8 (starts at Leu9); Found with the hD53 bait in Y190 and with the hD52 bait in Hf7c; also called nt 204 (Leu^9)) PSALFGGANFNQSGNIADSSLSFTFTNSSNGPNLITTQTNSQALSQPIASSNVHDNFMNNEITASKIDDGNNSKPLSPGWTDQTAYNAFGITTGMFNTTTMDDVYNYLFDDEDTPPNPKKELETEPLQGTDEDAVASADFSSMLSEEEKEELKAELVQLEDEITTLRQVLSAKERHLVEIKQKLGMNLMNELKQNFSKSWHDMQTTTAYKKTHETLSHAGQKATAAFSNVGTAISKKFGDMSYSIRHSISMPAMRNSPTFKSFEERVETTVTSLKTKVGGTNPNGGSFEEVLSSTAHASAQSLAGGSRRTKEEELQC",binding result,[1],binds
same,binding result,[4],binds
"mD52(1-95) bait (GAL4 DNA-binding domain fusion, pAS2-1mD52(1-95)) (other, also called N-terminal half of mD52) MKLLSSIEQACDICRLKKLKCSKEKPKCAKCLKNNWECRYSPKTKRSPLTRAHLTEVESRLERLEQLFLLIFPREDLDMILKMDSLQDIKALLTGLFVQDNVNKDAVTDRLASVETDMPLTLRQHRISATSSSEESSNKGQRQLTVSMDRGEQGLLKTEPVAEEGEDAVTMLSAPEALTEEEQEELRRELTKVEEEIQTLSQVLAAKEKHLAELKRKLGISSLQEFKQNIAKGWQDVTATNA",binding result,[5],binds
